# Key:
# HeLa Kyoto [1] = experiment: solubility in G1/S (NP-40 vs SDS abundance) (log2 ratio); higher = more soluble; details: cell cycle stage: G1/S
# HeLa Kyoto [2] = experiment: melting temperature (median over replicates), in situ; higher = more thermally stable
# HeLa Kyoto [3] = experiment: solubility change mitosis vs G1/S (difference of NP-40 vs SDS log2 ratios) (log2 ratio difference); higher = more soluble in mitosis
# HeLa Kyoto [4] = experiment: thermal stability score vs G1/S (z-score of summed log2 fold changes over temperatures); higher = more thermally stable than in G1/S
# [5] = cell cycle stage: early G1 (4.5 h after nocodazole release)
# 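Throughout, for melting temperature (median over replicates), in situ: HeLa Kyoto cells synchronized by double thymidine or nocodazole block, proteins quantified by TMT10plex mass spectrometry, three independent biological replicates.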
# 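Throughout, for solubility change mitosis vs G1/S (difference of NP-40 vs SDS log2 ratios): synchronized HeLa Kyoto cells (double thymidine block for G1/S, nocodazole release for mitosis), protein amounts in NP-40 versus SDS lysates quantified by mass spectrometry, three biological replicates.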
# 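Throughout, for solubility in G1/S (NP-40 vs SDS abundance): HeLa Kyoto cells arrested at G1/S by double thymidine block, proteins quantified by TMT10plex mass spectrometry in mild NP-40 versus SDS extracts, three biological replicates.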
# 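Throughout, for thermal stability score vs G1/S (z-score of summed log2 fold changes over temperatures): synchronized HeLa Kyoto cells, proteins quantified by TMT10plex mass spectrometry, three biological replicates, mitosis taken 0.5 h after nocodazole release, G1/S directly after double thymidine block.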
Sequence,solubility in G1/S (log2) (HeLa Kyoto [1]),melting temperature (HeLa Kyoto [2]; cell cycle stage: G1/S) [°C],melting temperature (HeLa Kyoto [2]; cell cycle stage: mitosis) [°C],solubility change mitosis (log2) (HeLa Kyoto [3]),thermal stability score (HeLa Kyoto [4]; [5]),thermal stability score (HeLa Kyoto [4]; cell cycle stage: mitosis)
MFWKFDLNTTSHVDKLLDKEHVTLQELMDEDDILQECKAQNQKLLDFLCRQQCMEELVSLITQDPPLDMEEKVRFKYPNTACELLTCDVPQISDRLGGDESLLSLLYDFLDHEPPLNPLLASFFSKTIGNLIARKTEQVITFLKKKDKFISLVLKHIGTSALMDLLLRLVSCVEPAGLRQDVLHWLNEEKVIQRLVELIHPSQDEDRQSNASQTLCDIVRLGRDQGSQLQEALEPDPLLTALESQDCVEQLLKNMFDGDRTESCLVSGTQVLLTLLETRRVGTEGLVDSFSQGLERSYAVSSSVLHGIEPRLKDFHQLLLNPPKKKAILTTIGVLEEPLGNARLHGARLMAALLHTNTPSINQELCRLNTMDLLLDLFFKYTWNNFLHFQVELCIAAILSHAAREERTEASGSESRVEPPHENGNRSLETPQPAASLPDNTMVTHLFQKCCLVQRILEAWEANDHTQAAGGMRRGNMGHLTRIANAVVQNLERGPVQTHISEVIRGLPADCRGRWESFVEETLTETNRRNTVDLVSTHHLHSSSEDEDIEGAFPNELSLQQAFSDYQIQQMTANFVDQFGFNDEEFADQDDNINAPFDRIAEINFNIDADEDSPSAALFEACCSDRIQPFDDDEDEDIWEDSDTRCAARVMARPRFGAPHASESCSKNGPERGGQDGKASLEAHRDAPGAGAPPAPGKKEAPPVEGDSEGAMWTAVFDEPANSTPTAPGVVRDVGSSVWAAGTSAPEEKGWAKFTDFQPFCCSESGPRCSSPVDTECSHAEGSRSQGPEKASQASYFAVSPASPCAWNVCVTRKAPLLASDSSSSGGSHSEDGDQKAASAMDAVSRGPGREAPPLPTVARTEEAVGRVGCADSRLLSPACPAPKEVTAAPAVAVPPEATVAITTALSKAGPAIPTPAVSSALAVAVPLGPIMAVTAAPAMVATLGTVTKDGKTDAPPEGAALNGPV [PPP6R2],0.0656,54.5,52.8,-0.119,-0.206,-1.5
MQKASVLLFLAWVCFLFYAGIALFTSGFLLTRLELTNHSSCQEPPGPGSLPWGSQGKPGACWMASRFSRVVLVLIDALRFDFAQPQHSHVPREPPVSLPFLGKLSSLQRILEIQPHHARLYRSQVDPPTTTMQRLKALTTGSLPTFIDAGSNFASHAIVEDNLIKQLTSAGRRVVFMGDDTWKDLFPGAFSKAFFFPSFNVRDLDTVDNGILEHLYPTMDSGEWDVLIAHFLGVDHCGHKHGPHHPEMAKKLSQMDQVIQGLVERLENDTLLVVAGDHGMTTNGDHGGDSELEVSAALFLYSPTAVFPSTPPEEPEVIPQVSLVPTLALLLGLPIPFGNIGEVMAELFSGGEDSQPHSSALAQASALHLNAQQVSRFLHTYSAATQDLQAKELHQLQNLFSKASADYQWLLQSPKGAEATLPTVIAELQQFLRGARAMCIESWARFSLVRMAGGTALLAASCFICLLASQWAISPGFPFCPLLLTPVAWGLVGAIAYAGLLGTIELKLDLVLLGAVAAVSSFLPFLWKAWAGWGSKRPLATLFPIPGPVLLLLLFRLAVFFSDSFVVAEARATPFLLGSFILLLVVQLHWEGQLLPPKLLTMPRLGTSATTNPPRHNGAYALRLGIGLLLCTRLAGLFHRCPEETPVCHSSPWLSPLASMVGGRAKNLWYGACVAALVALLAAVRLWLRRYGNLKSPEPPMLFVRWGLPLMALGTAAYWALASGADEAPPRLRVLVSGASMVLPRAVAGLAASGLALLLWKPVTVLVKAGAGAPRTRTVLTPFSGPPTSQADLDYVVPQIYRHMQEEFRGRLERTKSQGPLTVAAYQLGSVYSAAMVTALTLLAFPLLLLHAERISLVFLLLFLQSFLLLHLLAAGIPVTTPGPFTVPWQAVSAWALMATQTFYSTGHQPVFPAIHWHAAFVGFPEGHGSCTWLPALLVGANTFASHLLFAVGCPLLLLWPFLCESQGLRKRQQPPGNEADARVRPEEEEEPLMEMRLRDAPQHFYAALLQLGLKYLFILGIQILACALAASILRRHLMVWKVFAPKFIFEAVGFIVSSVGLLLGIALVMRVDGAVSSWFRQLFLAQQR [PIGO],-0.193,53.6,52.7,0.0305,-0.415,-0.374
MPKTISVRVTTMDAELEFAIQPNTTGKQLFDQVVKTIGLREVWFFGLQYQDTKGFSTWLKLNKKVTAQDVRKESPLLFKFRAKFYPEDVSEELIQDITQRLFFLQVKEGILNDDIYCPPETAVLLASYAVQSKYGDFNKEVHKSGYLAGDKLLPQRVLEQHKLNKDQWEERIQVWHEEHRGMLREDAVLEYLKIAQDLEMYGVNYFSIKNKKGSELWLGVDALGLNIYEQNDRLTPKIGFPWSEIRNISFNDKKFVIKPIDKKAPDFVFYAPRLRINKRILALCMGNHELYMRRRKPDTIEVQQMKAQAREEKHQKQMERAMLENEKKKREMAEKEKEKIEREKEELMERLKQIEEQTKKAQQELEEQTRRALELEQERKRAQSEAEKLAKERQEAEEAKEALLQASRDQKKTQEQLALEMAELTARISQLEMARQKKESEAVEWQQKAQMVQEDLEKTRAELKTAMSTPHVAEPAENEQDEQDENGAEASADLRADAMAKDRSEEERTTEAEKNERVQKHLKALTSELANARDESKKTANDMIHAENMRLGRDKYKTLRQIRQGNTKQRIDEFESM [MSN],0.0519,52.1,52,-0.0148,-0.264,1.56
MGSGARFPSGTLRVRWLLLLGLVGPVLGAARPGFQQTSHLSSYEIITPWRLTRERREAPRPYSKQVSYVIQAEGKEHIIHLERNKDLLPEDFVVYTYNKEGTLITDHPNIQNHCHYRGYVEGVHNSSIALSDCFGLRGLLHLENASYGIEPLQNSSHFEHIIYRMDDVYKEPLKCGVSNKDIEKETAKDEEEEPPSMTQLLRRRRAVLPQTRYVELFIVVDKERYDMMGRNQTAVREEMILLANYLDSMYIMLNIRIVLVGLEIWTNGNLINIVGGAGDVLGNFVQWREKFLITRRRHDSAQLVLKKGFGGTAGMAFVGTVCSRSHAGGINVFGQITVETFASIVAHELGHNLGMNHDDGRDCSCGAKSCIMNSGASGSRNFSSCSAEDFEKLTLNKGGNCLLNIPKPDEAYSAPSCGNKLVDAGEECDCGTPKECELDPCCEGSTCKLKSFAECAYGDCCKDCRFLPGGTLCRGKTSECDVPEYCNGSSQFCQPDVFIQNGYPCQNNKAYCYNGMCQYYDAQCQVIFGSKAKAAPKDCFIEVNSKGDRFGNCGFSGNEYKKCATGNALCGKLQCENVQEIPVFGIVPAIIQTPSRGTKCWGVDFQLGSDVPDPGMVNEGTKCGAGKICRNFQCVDASVLNYDCDVQKKCHGHGVCNSNKNCHCENGWAPPNCETKGYGGSVDSGPTYNEMNTALRDGLLVFFFLIVPLIVCAIFIFIKRDQLWRSYFRKKRSQTYESDGKNQANPSRQPGSVPRHVSPVTPPREVPIYANRFAVPTYAAKQPQQFPSRPPPPQPKVSSQGNLIPARPAPAPPLYSSLT [ADAM9],-0.486,57.3,56.8,-0.00657,-2.54,-2.91
MAEAVLRVARRQLSQRGGSGAPILLRQMFEPVSCTFTYLLGDRESREAVLIDPVLETAPRDAQLIKELGLRLLYAVNTHCHADHITGSGLLRSLLPGCQSVISRLSGAQADLHIEDGDSIRFGRFALETRASPGHTPGCVTFVLNDHSMAFTGDALLIRGCGRTDFQQGCAKTLYHSVHEKIFTLPGDCLIYPAHDYHGFTVSTVEEERTLNPRLTLSCEEFVKIMGNLNLPKPQQIDFAVPANMRCGVQTPTA [ETHE1],0.214,56.6,56.5,-0.0383,-1,-1.06
MQDPNADTEWNDILRKKGILPPKESLKELEEEAEEEQRILQQSVVKTYEDMTLEELEDHEDEFNEEDERAIEMYRRRRLAEWKATKLKNKFGEVLEISGKDYVQEVTKAGEGLWVILHLYKQGIPLCALINQHLSGLARKFPDVKFIKAISTTCIPNYPDRNLPTIFVYLEGDIKAQFIGPLVFGGMNLTRDELEWKLSESGAIMTDLEENPKKPIEDVLLSSVRRSVLMKRDSDSEGD [PDCL3],0.617,54.2,54.2,-0.135,-0.23,-0.106
MSSPSPGKRRMDTDVVKLIESKHEVTILGGLNEFVVKFYGPQGTPYEGGVWKVRVDLPDKYPFKSPSIGFMNKIFHPNIDEASGTVCLDVINQTWTALYDLTNIFESFLPQLLAYPNPIDPLNGDAAAMYLHRPEEYKQKIKEYIQKYATEEALKEQEEGTGDSSSESSMSDFSEDEAQDMEL [UBE2H],-0.0237,52,52.4,-0.126,0.268,0.877
MASGVTVNDEVIKVFNDMKVRKSSTQEEIKKRKKAVLFCLSDDKRQIIVEEAKQILVGDIGDTVEDPYTSFVKLLPLNDCRYALYDATYETKESKKEDLVFIFWAPESAPLKSKMIYASSKDAIKKKFTGIKHEWQVNGLDDIKDRSTLGEKLGGNVVVSLEGKPL [CFL2],0.129,55.1,54.2,-0.058,-0.937,-3.81
MLFLALGSPWAVELPLCGRRTALCAAAALRGPRASVSRASSSSGPSGPVAGWSTGPSGAARLLRRPGRAQIPVYWEGYVRFLNTPSDKSEDGRLIYTGNMARAVFGVKCFSYSTSLIGLTFLPYIFTQNNAISESVPLPIQIIFYGIMGSFTVITPVLLHFITKGYVIRLYHEATTDTYKAITYNAMLAETSTVFHQNDVKIPDAKHVFTTFYAKTKSLLVNPVLFPNREDYIHLMGYDKEEFILYMEETSEEKRHKDDK [TMEM70],-0.0239,54.1,53.4,-0.344,0.217,-1.65
MRLSWFRVLTVLSICLSAVATATGAEGKRKLQIGVKKRVDHCPIKSRKGDVLHMHYTGKLEDGTEFDSSLPQNQPFVFSLGTGQVIKGWDQGLLGMCEGEKRKLVIPSELGYGERGAPPKIPGGATLVFEVELLKIERRTEL [FKBP2],0.262,53.1,54.8,-0.0211,1.33,1.16
MAREKEMQEFTRSFFRGRPDLSTLTHSIVRRRYLAHSGRSHLEPEEKQALKRLVEEELLKMQVDEAASREDKLDLTKKGKRPPTPCSDPERKRFRFNSESESGSEASSPDYFGPPAKNGVAAEVSPAKEENPRRASKAVEESSDEERQRDLPAQRGEESSEEEEKGYKGKTRKKPVVKKQAPGKASVSRKQAREESEESEAEPVQRTAKKVEGNKGTKSLKESEQESEEEILAQKKEQREEEVEEEEKEEDEEKGDWKPRTRSNGRRKSAREERSCKQKSQAKRLLGDSDSEEEQKEAASSGDDSGRDREPPVQRKSEDRTQLKGGKRLSGSSEDEEDSGKGEPTAKGSRKMARLGSTSGEESDLEREVSDSEAGGGPQGERKNRSSKKSSRKGRTRSSSSSSDGSPEAKGGKAGSGRRGEDHPAVMRLKRYIRACGAHRNYKKLLGSCCSHKERLSILRAELEALGMKGTPSLGKCRALKEQREEAAEVASLDVANIISGSGRPRRRTAWNPLGEAAPPGELYRRTLDSDEERPRPAPPDWSHMRGIISSDGESN [HIRIP3],0.0105,53,52.5,0.398,0.379,0.978
MPAGRAARTCALLALCLLGAGAQDFGPTRFICTSVPVDADMCAASVAAGGAEELRSSVLQLRETVLQQKETILSQKETIRELTAKLGRCESQSTLDPGAGEARAGGGRKQPGSGKNTMGDLSRTPAAETLSQLGQTLQSLKTRLENLEQYSRLNSSSQTNSLKDLLQSKIDELERQVLSRVNTLEEGKGGPRNDTEERVKIETALTSLHQRISELEKGQKDNRPGDKFQLTFPLRTNYMYAKVKKSLPEMYAFTVCMWLKSSATPGVGTPFSYAVPGQANELVLIEWGNNPMEILINDKVAKLPFVINDGKWHHICVTWTTRDGVWEAYQDGTQGGSGENLAPYHPIKPQGVLVLGQEQDTLGGGFDATQAFVGELAHFNIWDRKLTPGEVYNLATCSTKALSGNVIAWAESHIEIYGGATKWTFEACRQIN [NPTX1],0.224,54,55.4,-0.119,3.28,3.79

# — the supplement of paper PMC5998384
